This note sets out measurements from the supplement of paper PMC9112550, “Optimization of the antimicrobial peptide Bac7 by deep mutational scanning” (BMC Biology, 2022).

The data set concerns Escherichia coli TOP10. The data set is described as follows: shrunken log2 fold change of peptide-encoding DNA abundance (4.5 h post-induction vs induction); higher = less antimicrobial activity (less host growth inhibition). Conditions: time post-induction: 4.5 h; library: site-saturation at positions 5, 18, 19, 20.
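Also: peptides expressed intracellularly from a pBAD plasmid library in pooled LB shake-flask culture, induced with 0.3% L-arabinose, DNA abundance read by NGS, three biological replicates, DESeq2 with apeglm shrinkage.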

In the case of RRIRQRPPRLPRPRPRPGNQPRP, the “shrunken log2 fold change” value is 0.0157. RRIRFRPPRLPRPRPRPCYWPRP: the “shrunken log2 fold change” value was -0.0974. As for RRIRIRPPRLPRPRPRPSAMPRP, the figure is -0.349; as for RRIRERPPRLPRPRPRPWSSPRP, 9.28e-05; as for RRIRLRPPRLPRPRPRPVNWPRP, 0.0772. In the case of RRIRLRPPRLPRPRPRPSWIPRP it was -0.131; in that of RRIRGRPPRLPRPRPRPDTHPRP, -0.156; in that of RRIRHRPPRLPRPRPRPLPPPRP, 0.196. As for RRIRRRPPRLPRPRPRPFPEPRP, the figure is 0.212; as for RRIRRRPPRLPRPRPRPTPWPRP, 0.841; as for RRIRKRPPRLPRPRPRPPFAPRP, 0.745.

Take RRIRQRPPRLPRPRPRPDRSPRP: the “shrunken log2 fold change” value amounted to 0.0153.

Consider RRIRNRPPRLPRPRPRPRDKPRP, for which the “shrunken log2 fold change” value was -0.332. As for RRIRTRPPRLPRPRPRPFIYPRP, the figure is -0.657. In the case of RRIRHRPPRLPRPRPRPGPTPRP it was 0.146. In the case of RRIRERPPRLPRPRPRPFLLPRP it was -0.688. Turning to RRIRPRPPRLPRPRPRPEGSPRP, the “shrunken log2 fold change” value turned out to be 0.0654.

Turning to RRIRHRPPRLPRPRPRPCWKPRP, the “shrunken log2 fold change” value is -0.119. In the case of RRIRSRPPRLPRPRPRPNKTPRP it was -0.286; in that of RRIRTRPPRLPRPRPRPDFMPRP, -0.15; in that of RRIRPRPPRLPRPRPRPPIPPRP, 0.15. As for RRIRTRPPRLPRPRPRPQGMPRP, the figure is 0.0427. In the case of RRIRGRPPRLPRPRPRPGVGPRP it was 1.11. Turning to RRIRMRPPRLPRPRPRPMHHPRP, the “shrunken log2 fold change” value worked out at 0.0123. As for RRIRARPPRLPRPRPRPKEIPRP, the figure is 0.711; as for RRIRYRPPRLPRPRPRPQYEPRP, -0.565.

RRIRRRPPRLPRPRPRPNRHPRP: the “shrunken log2 fold change” value was -0.00811.

For RRIRDRPPRLPRPRPRPTYCPRP, the “shrunken log2 fold change” value is -0.27. With RRIRDRPPRLPRPRPRPASRPRP, the “shrunken log2 fold change” value worked out at 0.17. As for RRIRCRPPRLPRPRPRPACGPRP, the figure is 0.323.

As for RRIRPRPPRLPRPRPRPNYWPRP, the “shrunken log2 fold change” value is -0.234. As to RRIRTRPPRLPRPRPRPMSHPRP, the “shrunken log2 fold change” value is -0.238.

RRIRVRPPRLPRPRPRPDFDPRP: the “shrunken log2 fold change” value stood at 0.0753. For the sequence RRIRYRPPRLPRPRPRPSIYPRP, the “shrunken log2 fold change” value is -1.09. In the case of RRIRERPPRLPRPRPRPPMKPRP it was -0.418. With RRIRVRPPRLPRPRPRPRCNPRP, the “shrunken log2 fold change” value was -0.135. As for RRIRERPPRLPRPRPRPECLPRP, the figure is -0.137. As for RRIRQRPPRLPRPRPRPRHGPRP, the figure is -0.203; as for RRIRFRPPRLPRPRPRPCYLPRP, -0.891; as for RRIRPRPPRLPRPRPRPAELPRP, 0.335. As to RRIRMRPPRLPRPRPRPLMDPRP, the “shrunken log2 fold change” value worked out at 1.24. Turning to RRIRIRPPRLPRPRPRPRWCPRP, the “shrunken log2 fold change” value is -0.11.

Turning to RRIRHRPPRLPRPRPRPVDMPRP, the “shrunken log2 fold change” value was -0.201. For the sequence RRIRHRPPRLPRPRPRPYNGPRP, the “shrunken log2 fold change” value was -0.835. With RRIRGRPPRLPRPRPRPLCDPRP, the “shrunken log2 fold change” value was found to be 0.778. For RRIRERPPRLPRPRPRPWQHPRP, the “shrunken log2 fold change” value is -0.00568. In the case of RRIRLRPPRLPRPRPRPQHSPRP it was -0.337; in that of RRIRWRPPRLPRPRPRPCEHPRP, 0.0123; in that of RRIRWRPPRLPRPRPRPLSEPRP, 0.104.

For RRIRYRPPRLPRPRPRPPWVPRP, the “shrunken log2 fold change” value was -0.209. RRIRWRPPRLPRPRPRPYPNPRP: the “shrunken log2 fold change” value is -0.58. As for RRIRWRPPRLPRPRPRPITAPRP, the figure is 0.0334; as for RRIRARPPRLPRPRPRPVKWPRP, 3.06. Regarding RRIRPRPPRLPRPRPRPPSDPRP, the “shrunken log2 fold change” value was found to be 0.128. As for RRIRYRPPRLPRPRPRPLVKPRP, the figure is -1.45; as for RRIRQRPPRLPRPRPRPECKPRP, -0.0182; as for RRIRPRPPRLPRPRPRPTFDPRP, -0.0186. In the case of RRIRFRPPRLPRPRPRPVRQPRP it was 0.0478; in that of RRIRFRPPRLPRPRPRPGSKPRP, -0.43.

For the sequence RRIRARPPRLPRPRPRPNGQPRP, the “shrunken log2 fold change” value was 0.208. As for RRIRKRPPRLPRPRPRPGLKPRP, the figure is 0.377; as for RRIRRRPPRLPRPRPRPHPKPRP, 0.474; as for RRIRYRPPRLPRPRPRPFQQPRP, -0.0176. As for RRIRWRPPRLPRPRPRPFHQPRP, the figure is -0.259; as for RRIRERPPRLPRPRPRPIFKPRP, 0.138; as for RRIRPRPPRLPRPRPRPQGEPRP, 0.208. In the case of RRIRIRPPRLPRPRPRPIWCPRP it was -0.00146; in that of RRIRWRPPRLPRPRPRPRLRPRP, 0.461; in that of RRIRFRPPRLPRPRPRPRFHPRP, -0.409.

Turning to RRIRLRPPRLPRPRPRPMTRPRP, the “shrunken log2 fold change” value is 0.314. As for RRIRTRPPRLPRPRPRPHDIPRP, the figure is 2.43; as for RRIRKRPPRLPRPRPRPIQGPRP, -0.0243.

Take RRIRARPPRLPRPRPRPRWMPRP: the “shrunken log2 fold change” value amounted to 0.451. In the case of RRIRPRPPRLPRPRPRPELCPRP it was 0.277; in that of RRIRKRPPRLPRPRPRPWKIPRP, -0.00192; in that of RRIRARPPRLPRPRPRPQLCPRP, 0.249.

Take RRIRKRPPRLPRPRPRPVAGPRP: the “shrunken log2 fold change” value amounted to 0.127. With RRIRGRPPRLPRPRPRPEMNPRP, the “shrunken log2 fold change” value was found to be 0.999.

Regarding RRIRMRPPRLPRPRPRPQWWPRP, the “shrunken log2 fold change” value amounted to 0.245. RRIRARPPRLPRPRPRPLIMPRP: the “shrunken log2 fold change” value is -0.144. As for RRIRRRPPRLPRPRPRPYATPRP, the figure is 0.418.

RRIRSRPPRLPRPRPRPMTGPRP: the “shrunken log2 fold change” value worked out at 0.00381. As for RRIRERPPRLPRPRPRPWEKPRP, the figure is -0.00277. In the case of RRIRVRPPRLPRPRPRPFKTPRP it was 0.146. As for RRIRQRPPRLPRPRPRPLRMPRP, the figure is 0.483; as for RRIRGRPPRLPRPRPRPLDVPRP, 0.326. Regarding RRIRLRPPRLPRPRPRPFAVPRP, the “shrunken log2 fold change” value was -0.0849.

For the sequence RRIRCRPPRLPRPRPRPEESPRP, the “shrunken log2 fold change” value is -0.00538.

For the sequence RRIRTRPPRLPRPRPRPLWIPRP, the “shrunken log2 fold change” value was -0.331. In the case of RRIRVRPPRLPRPRPRPYTMPRP, the “shrunken log2 fold change” value was -0.49. As for RRIRLRPPRLPRPRPRPCYKPRP, the figure is -0.133. As for RRIRYRPPRLPRPRPRPKVIPRP, the figure is -0.102.

On to RRIRQRPPRLPRPRPRPFKIPRP, for which the “shrunken log2 fold change” value is -0.00995. Regarding RRIRVRPPRLPRPRPRPKIGPRP, the “shrunken log2 fold change” value is -0.0842. As for RRIRCRPPRLPRPRPRPERTPRP, the figure is 0.766; as for RRIRTRPPRLPRPRPRPEFVPRP, 0.107. In the case of RRIRPRPPRLPRPRPRPCNMPRP it was 0.0288; in that of RRIRPRPPRLPRPRPRPGGIPRP, 0.114. RRIRRRPPRLPRPRPRPPPCPRP: the “shrunken log2 fold change” value was found to be 0.864. As for RRIRSRPPRLPRPRPRPTTFPRP, the figure is -0.272; as for RRIRYRPPRLPRPRPRPQVNPRP, -0.0568.

As for RRIRMRPPRLPRPRPRPSPDPRP, the “shrunken log2 fold change” value is 1.19.

With RRIRIRPPRLPRPRPRPVYHPRP, the “shrunken log2 fold change” value is -0.262. In the case of RRIRHRPPRLPRPRPRPKTPPRP it was 0.155. RRIRMRPPRLPRPRPRPAEDPRP: the “shrunken log2 fold change” value came to 1.93. On to RRIRLRPPRLPRPRPRPPNIPRP, for which the “shrunken log2 fold change” value was -0.346.

Consider RRIRCRPPRLPRPRPRPNSYPRP, for which the “shrunken log2 fold change” value is -0.54. As for RRIRIRPPRLPRPRPRPPCIPRP, the “shrunken log2 fold change” value was -0.0558. As for RRIRERPPRLPRPRPRPDDNPRP, the figure is 0.0486. As for RRIRLRPPRLPRPRPRPHQWPRP, the figure is -0.0297; as for RRIRTRPPRLPRPRPRPNDHPRP, -0.0838; as for RRIRSRPPRLPRPRPRPRQDPRP, 0.127. As for RRIRIRPPRLPRPRPRPENWPRP, the figure is -0.00191; as for RRIRQRPPRLPRPRPRPKQYPRP, -0.359; as for RRIRFRPPRLPRPRPRPQDQPRP, -0.0978. For the sequence RRIRMRPPRLPRPRPRPGWDPRP, the “shrunken log2 fold change” value was 0.297.

Regarding RRIRTRPPRLPRPRPRPAHAPRP, the “shrunken log2 fold change” value was determined as 0.0759. As for RRIRTRPPRLPRPRPRPTKQPRP, the figure is -0.0507.

Regarding RRIRMRPPRLPRPRPRPYNMPRP, the “shrunken log2 fold change” value was -0.348.

With RRIRSRPPRLPRPRPRPYCMPRP, the “shrunken log2 fold change” value was -0.881. As for RRIRMRPPRLPRPRPRPMEMPRP, the figure is 0.515; as for RRIRWRPPRLPRPRPRPMYCPRP, 0.0174; as for RRIRCRPPRLPRPRPRPPSYPRP, -0.457. In the case of RRIRYRPPRLPRPRPRPSLPPRP it was -0.546; in that of RRIRIRPPRLPRPRPRPLHTPRP, -0.456.
